Experimental data reported in IntAct's records for PubMed 12679340.

B1: Ornithine carbamoyltransferase (Saccharomyces cerevisiae), P05150 (parent)
chain: MSTTASTPSSLRHLISIKDLSDEEFRILVQRAQHFKNVFKANKTNDFQSNHLKLLGRTIALIFTKRSTRTRISTEGAATFFGAQPMFLGKEDIQLGVNESFYDTTKVVSSMVSCIFARVNKHEDILAFCKDSSVPIINSLCDKFHPLQAICDLLTIIENFNISLDEVNKGINSKLKMAWIGDANNVINDMCIACLKFGISVSISTPPGIEMDSDIVDEAKKVAERNGATFELTHDSLKASTNANILVTDTFVSMGEEFAKQAKLKQFKGFQINQELVSVADPNYKFMHCLPRHQEEVSDDVFYGEHSIVFEEAENRLYAAMSAIDIFVNNKGNFKDLK

Variants of: B1
Details: with argi_yeast CAR1, P00812
Sequence of argi_yeast CAR1, P00812 (P00812 whole entry): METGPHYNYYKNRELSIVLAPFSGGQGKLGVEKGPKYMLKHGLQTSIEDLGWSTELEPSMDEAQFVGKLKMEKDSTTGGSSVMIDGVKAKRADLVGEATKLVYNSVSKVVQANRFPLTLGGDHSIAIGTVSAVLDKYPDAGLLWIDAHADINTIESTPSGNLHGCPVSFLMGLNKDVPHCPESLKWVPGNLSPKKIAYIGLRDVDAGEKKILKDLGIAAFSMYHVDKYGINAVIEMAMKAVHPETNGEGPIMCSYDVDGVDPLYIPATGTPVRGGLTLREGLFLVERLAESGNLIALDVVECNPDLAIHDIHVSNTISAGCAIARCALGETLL

Variant	effect of a mutation on the interaction
D182N	decreasing interaction
